{"source": "patent US20210388087A1", "about": "(Chugai, published 2021)"}
{"target": "T1, Human CD3eg linker (human)", "T1 construct": "Single-chain construct; also called recombinant human CD3", "T1 chain": "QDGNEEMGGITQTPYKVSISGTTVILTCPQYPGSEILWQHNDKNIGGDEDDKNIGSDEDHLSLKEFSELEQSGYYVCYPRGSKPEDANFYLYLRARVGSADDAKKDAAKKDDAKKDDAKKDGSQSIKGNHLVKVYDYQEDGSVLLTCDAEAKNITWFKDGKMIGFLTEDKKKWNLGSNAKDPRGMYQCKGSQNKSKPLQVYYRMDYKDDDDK", "experiment": "SPR; fold vs parent H183/L072", "units": {"fold change of affinity": "fold"}}
{"binder": "H183/L072 VL T92M (antibody, name in Kabat numbering, V domains shown) VH: QVQLVESGGGLVQPGRSLRLSCAASGFTFSNAWMHWVRQAPGKGLEWVAQIKDKGNAYAAYYAPSVKGRFTISRDDSKNSIYLQMNSLKTEDTAVYYCHYVHYASASTVLPAFGVDAWGQGTTVTVSS VL: DIVMTQSPLSLPVTPGEPASISCQASQELVHMNRNTYLHWYQQKPGQAPRLLIYKVSNRFPGVPDRFSGSGSGTDFTLKISRVEAEDVGVYYCAQGMSVPFTFGQGTKLEIK", "fold change of affinity": 0.3}
{"binder": "H183/L072 VL T97M (antibody, name in Kabat numbering, V domains shown) VH: QVQLVESGGGLVQPGRSLRLSCAASGFTFSNAWMHWVRQAPGKGLEWVAQIKDKGNAYAAYYAPSVKGRFTISRDDSKNSIYLQMNSLKTEDTAVYYCHYVHYASASTVLPAFGVDAWGQGTTVTVSS VL: DIVMTQSPLSLPVTPGEPASISCQASQELVHMNRNTYLHWYQQKPGQAPRLLIYKVSNRFPGVPDRFSGSGSGTDFTLKISRVEAEDVGVYYCAQGTSVPFMFGQGTKLEIK", "fold change of affinity": 0.7}
{"binder": "H183/L072 VL T97S (antibody, name in Kabat numbering, V domains shown) VH: QVQLVESGGGLVQPGRSLRLSCAASGFTFSNAWMHWVRQAPGKGLEWVAQIKDKGNAYAAYYAPSVKGRFTISRDDSKNSIYLQMNSLKTEDTAVYYCHYVHYASASTVLPAFGVDAWGQGTTVTVSS VL: DIVMTQSPLSLPVTPGEPASISCQASQELVHMNRNTYLHWYQQKPGQAPRLLIYKVSNRFPGVPDRFSGSGSGTDFTLKISRVEAEDVGVYYCAQGTSVPFSFGQGTKLEIK", "fold change of affinity": 1.1}
{"binder": "H183/L072 VL T97E (antibody, name in Kabat numbering, V domains shown) VH: QVQLVESGGGLVQPGRSLRLSCAASGFTFSNAWMHWVRQAPGKGLEWVAQIKDKGNAYAAYYAPSVKGRFTISRDDSKNSIYLQMNSLKTEDTAVYYCHYVHYASASTVLPAFGVDAWGQGTTVTVSS VL: DIVMTQSPLSLPVTPGEPASISCQASQELVHMNRNTYLHWYQQKPGQAPRLLIYKVSNRFPGVPDRFSGSGSGTDFTLKISRVEAEDVGVYYCAQGTSVPFEFGQGTKLEIK", "fold change of affinity": 0.6}
{"binder": "H183/L072 VL T92N (antibody, name in Kabat numbering, V domains shown) VH: QVQLVESGGGLVQPGRSLRLSCAASGFTFSNAWMHWVRQAPGKGLEWVAQIKDKGNAYAAYYAPSVKGRFTISRDDSKNSIYLQMNSLKTEDTAVYYCHYVHYASASTVLPAFGVDAWGQGTTVTVSS VL: DIVMTQSPLSLPVTPGEPASISCQASQELVHMNRNTYLHWYQQKPGQAPRLLIYKVSNRFPGVPDRFSGSGSGTDFTLKISRVEAEDVGVYYCAQGNSVPFTFGQGTKLEIK", "fold change of affinity": 0.2}
{"binder": "H183/L072 VL T92R (antibody, name in Kabat numbering, V domains shown) VH: QVQLVESGGGLVQPGRSLRLSCAASGFTFSNAWMHWVRQAPGKGLEWVAQIKDKGNAYAAYYAPSVKGRFTISRDDSKNSIYLQMNSLKTEDTAVYYCHYVHYASASTVLPAFGVDAWGQGTTVTVSS VL: DIVMTQSPLSLPVTPGEPASISCQASQELVHMNRNTYLHWYQQKPGQAPRLLIYKVSNRFPGVPDRFSGSGSGTDFTLKISRVEAEDVGVYYCAQGRSVPFTFGQGTKLEIK", "fold change of affinity": 0.5}
{"binder": "H183/L072 VL T97K (antibody, name in Kabat numbering, V domains shown) VH: QVQLVESGGGLVQPGRSLRLSCAASGFTFSNAWMHWVRQAPGKGLEWVAQIKDKGNAYAAYYAPSVKGRFTISRDDSKNSIYLQMNSLKTEDTAVYYCHYVHYASASTVLPAFGVDAWGQGTTVTVSS VL: DIVMTQSPLSLPVTPGEPASISCQASQELVHMNRNTYLHWYQQKPGQAPRLLIYKVSNRFPGVPDRFSGSGSGTDFTLKISRVEAEDVGVYYCAQGTSVPFKFGQGTKLEIK", "fold change of affinity": 0.6}
{"binder": "H183/L072 VL T97L (antibody, name in Kabat numbering, V domains shown) VH: QVQLVESGGGLVQPGRSLRLSCAASGFTFSNAWMHWVRQAPGKGLEWVAQIKDKGNAYAAYYAPSVKGRFTISRDDSKNSIYLQMNSLKTEDTAVYYCHYVHYASASTVLPAFGVDAWGQGTTVTVSS VL: DIVMTQSPLSLPVTPGEPASISCQASQELVHMNRNTYLHWYQQKPGQAPRLLIYKVSNRFPGVPDRFSGSGSGTDFTLKISRVEAEDVGVYYCAQGTSVPFLFGQGTKLEIK", "fold change of affinity": 0.4}
{"binder": "H183/L072 VL T97A (antibody, name in Kabat numbering, V domains shown) VH: QVQLVESGGGLVQPGRSLRLSCAASGFTFSNAWMHWVRQAPGKGLEWVAQIKDKGNAYAAYYAPSVKGRFTISRDDSKNSIYLQMNSLKTEDTAVYYCHYVHYASASTVLPAFGVDAWGQGTTVTVSS VL: DIVMTQSPLSLPVTPGEPASISCQASQELVHMNRNTYLHWYQQKPGQAPRLLIYKVSNRFPGVPDRFSGSGSGTDFTLKISRVEAEDVGVYYCAQGTSVPFAFGQGTKLEIK", "fold change of affinity": 0.8}
{"binder": "H183/L072 VL T97G (antibody, name in Kabat numbering, V domains shown) VH: QVQLVESGGGLVQPGRSLRLSCAASGFTFSNAWMHWVRQAPGKGLEWVAQIKDKGNAYAAYYAPSVKGRFTISRDDSKNSIYLQMNSLKTEDTAVYYCHYVHYASASTVLPAFGVDAWGQGTTVTVSS VL: DIVMTQSPLSLPVTPGEPASISCQASQELVHMNRNTYLHWYQQKPGQAPRLLIYKVSNRFPGVPDRFSGSGSGTDFTLKISRVEAEDVGVYYCAQGTSVPFGFGQGTKLEIK", "fold change of affinity": 1}
{"binder": "H183/L072 VL T97I (antibody, name in Kabat numbering, V domains shown) VH: QVQLVESGGGLVQPGRSLRLSCAASGFTFSNAWMHWVRQAPGKGLEWVAQIKDKGNAYAAYYAPSVKGRFTISRDDSKNSIYLQMNSLKTEDTAVYYCHYVHYASASTVLPAFGVDAWGQGTTVTVSS VL: DIVMTQSPLSLPVTPGEPASISCQASQELVHMNRNTYLHWYQQKPGQAPRLLIYKVSNRFPGVPDRFSGSGSGTDFTLKISRVEAEDVGVYYCAQGTSVPFIFGQGTKLEIK", "fold change of affinity": 0.5}
{"binder": "H183/L072 VL T97Q (antibody, name in Kabat numbering, V domains shown) VH: QVQLVESGGGLVQPGRSLRLSCAASGFTFSNAWMHWVRQAPGKGLEWVAQIKDKGNAYAAYYAPSVKGRFTISRDDSKNSIYLQMNSLKTEDTAVYYCHYVHYASASTVLPAFGVDAWGQGTTVTVSS VL: DIVMTQSPLSLPVTPGEPASISCQASQELVHMNRNTYLHWYQQKPGQAPRLLIYKVSNRFPGVPDRFSGSGSGTDFTLKISRVEAEDVGVYYCAQGTSVPFQFGQGTKLEIK", "fold change of affinity": 0.5}
{"binder": "H183/L072 VL T92S (antibody, name in Kabat numbering, V domains shown) VH: QVQLVESGGGLVQPGRSLRLSCAASGFTFSNAWMHWVRQAPGKGLEWVAQIKDKGNAYAAYYAPSVKGRFTISRDDSKNSIYLQMNSLKTEDTAVYYCHYVHYASASTVLPAFGVDAWGQGTTVTVSS VL: DIVMTQSPLSLPVTPGEPASISCQASQELVHMNRNTYLHWYQQKPGQAPRLLIYKVSNRFPGVPDRFSGSGSGTDFTLKISRVEAEDVGVYYCAQGSSVPFTFGQGTKLEIK", "fold change of affinity": 0.5}
{"binder": "H183/L072 VL T97H (antibody, name in Kabat numbering, V domains shown) VH: QVQLVESGGGLVQPGRSLRLSCAASGFTFSNAWMHWVRQAPGKGLEWVAQIKDKGNAYAAYYAPSVKGRFTISRDDSKNSIYLQMNSLKTEDTAVYYCHYVHYASASTVLPAFGVDAWGQGTTVTVSS VL: DIVMTQSPLSLPVTPGEPASISCQASQELVHMNRNTYLHWYQQKPGQAPRLLIYKVSNRFPGVPDRFSGSGSGTDFTLKISRVEAEDVGVYYCAQGTSVPFHFGQGTKLEIK", "fold change of affinity": 0.5}
{"binder": "H183/L072 VL T97F (antibody, name in Kabat numbering, V domains shown) VH: QVQLVESGGGLVQPGRSLRLSCAASGFTFSNAWMHWVRQAPGKGLEWVAQIKDKGNAYAAYYAPSVKGRFTISRDDSKNSIYLQMNSLKTEDTAVYYCHYVHYASASTVLPAFGVDAWGQGTTVTVSS VL: DIVMTQSPLSLPVTPGEPASISCQASQELVHMNRNTYLHWYQQKPGQAPRLLIYKVSNRFPGVPDRFSGSGSGTDFTLKISRVEAEDVGVYYCAQGTSVPFFFGQGTKLEIK", "fold change of affinity": 0.3}
{"binder": "H183/L072 VL T92Q (antibody, name in Kabat numbering, V domains shown) VH: QVQLVESGGGLVQPGRSLRLSCAASGFTFSNAWMHWVRQAPGKGLEWVAQIKDKGNAYAAYYAPSVKGRFTISRDDSKNSIYLQMNSLKTEDTAVYYCHYVHYASASTVLPAFGVDAWGQGTTVTVSS VL: DIVMTQSPLSLPVTPGEPASISCQASQELVHMNRNTYLHWYQQKPGQAPRLLIYKVSNRFPGVPDRFSGSGSGTDFTLKISRVEAEDVGVYYCAQGQSVPFTFGQGTKLEIK", "fold change of affinity": 0}
{"binder": "H183/L072 VL T92V (antibody, name in Kabat numbering, V domains shown) VH: QVQLVESGGGLVQPGRSLRLSCAASGFTFSNAWMHWVRQAPGKGLEWVAQIKDKGNAYAAYYAPSVKGRFTISRDDSKNSIYLQMNSLKTEDTAVYYCHYVHYASASTVLPAFGVDAWGQGTTVTVSS VL: DIVMTQSPLSLPVTPGEPASISCQASQELVHMNRNTYLHWYQQKPGQAPRLLIYKVSNRFPGVPDRFSGSGSGTDFTLKISRVEAEDVGVYYCAQGVSVPFTFGQGTKLEIK", "fold change of affinity": 0.4}
{"binder": "H183/L072 VL T97N (antibody, name in Kabat numbering, V domains shown) VH: QVQLVESGGGLVQPGRSLRLSCAASGFTFSNAWMHWVRQAPGKGLEWVAQIKDKGNAYAAYYAPSVKGRFTISRDDSKNSIYLQMNSLKTEDTAVYYCHYVHYASASTVLPAFGVDAWGQGTTVTVSS VL: DIVMTQSPLSLPVTPGEPASISCQASQELVHMNRNTYLHWYQQKPGQAPRLLIYKVSNRFPGVPDRFSGSGSGTDFTLKISRVEAEDVGVYYCAQGTSVPFNFGQGTKLEIK", "fold change of affinity": 0.5}
{"binder": "H183/L072 VL T97R (antibody, name in Kabat numbering, V domains shown) VH: QVQLVESGGGLVQPGRSLRLSCAASGFTFSNAWMHWVRQAPGKGLEWVAQIKDKGNAYAAYYAPSVKGRFTISRDDSKNSIYLQMNSLKTEDTAVYYCHYVHYASASTVLPAFGVDAWGQGTTVTVSS VL: DIVMTQSPLSLPVTPGEPASISCQASQELVHMNRNTYLHWYQQKPGQAPRLLIYKVSNRFPGVPDRFSGSGSGTDFTLKISRVEAEDVGVYYCAQGTSVPFRFGQGTKLEIK", "fold change of affinity": 0.4}
{"binder": "H183/L072 VL T97D (antibody, name in Kabat numbering, V domains shown) VH: QVQLVESGGGLVQPGRSLRLSCAASGFTFSNAWMHWVRQAPGKGLEWVAQIKDKGNAYAAYYAPSVKGRFTISRDDSKNSIYLQMNSLKTEDTAVYYCHYVHYASASTVLPAFGVDAWGQGTTVTVSS VL: DIVMTQSPLSLPVTPGEPASISCQASQELVHMNRNTYLHWYQQKPGQAPRLLIYKVSNRFPGVPDRFSGSGSGTDFTLKISRVEAEDVGVYYCAQGTSVPFDFGQGTKLEIK", "fold change of affinity": 0.6}
